Reference: patent US20180155451A1 (published 2018)

B1: GpH7-A5/GpH7-B3 variant E333_13S/GpL16-k0 (antibody, human IgG1, kappa)
heavy 1: not shown
heavy 2: not shown
light: DIVMTQSPLSLPVTPGEPASISCQASESLVHSNRNTYLHWYLQKPGQSPQLLIYKVSNRFSGVPDRFSGSGSGTDFTLKISRVEAEDVGVYYCSQNTHVPPTFGQGTKVEIERTVAAPSVFIFPPSDEQLKSGTASVVCLLNNFYPREAKVQWKVDNALQSGNSQESVTEQDSKDSTYSLSSTLTLSKADYEKHKVYACEVTHQGLSSPVTKSFNRGEC
notes: position is EU numbering; also called He Ab
B2: GpH7-A5/GpH7-B3 variant S298_16H/GpL16-k0 (antibody, human IgG1, kappa)
heavy 1: not shown
heavy 2: not shown
light: B1 light
notes: as for B1
B3: GpH7-A5/GpH7-B3 variant I332_09D/GpL16-k0 (antibody, human IgG1, kappa)
heavy 1: not shown
heavy 2: not shown
light: B1 light
notes: as for B1
B4: GpH7-A5/GpH7-B3 variant S298_15Y/GpL16-k0 (antibody, human IgG1, kappa)
heavy 1: not shown
heavy 2: not shown
light: B1 light
notes: as for B1
B5: GpH7-A5/GpH7-B3 variant S324_02A/GpL16-k0 (antibody, human IgG1, kappa)
heavy 1: not shown
heavy 2: not shown
light: B1 light
notes: as for B1
B6: GpH7-A5/GpH7-B3 variant Q295_13S/GpL16-k0 (antibody, human IgG1, kappa)
heavy 1: not shown
heavy 2: not shown
light: B1 light
notes: as for B1
B7: GpH7-A5/GpH7-B3 variant S298_14T/GpL16-k0 (antibody, human IgG1, kappa)
heavy 1: not shown
heavy 2: not shown
light: B1 light
notes: as for B1
B8: GpH7-A5/GpH7-B3 variant I332_10E/GpL16-k0 (antibody, human IgG1, kappa)
heavy 1: not shown
heavy 2: not shown
light: B1 light
notes: as for B1
B9: GpH7-A5/GpH7-B3 variant K334_08L/GpL16-k0 (antibody, human IgG1, kappa)
heavy 1: not shown
heavy 2: not shown
light: B1 light
notes: as for B1
B10: GpH7-A5/GpH7-B3 variant P329_12R/GpL16-k0 (antibody, human IgG1, kappa)
heavy 1: not shown
heavy 2: not shown
light: B1 light
notes: as for B1
B11: GpH7-A5/GpH7-B3 variant S324_01G/GpL16-k0 (antibody, human IgG1, kappa)
heavy 1: not shown
heavy 2: not shown
light: B1 light
notes: as for B1
B12: GpH7-A5/GpH7-B3 variant I332_12R/GpL16-k0 (antibody, human IgG1, kappa)
heavy 1: not shown
heavy 2: not shown
light: B1 light
notes: as for B1
B13: GpH7-A5/GpH7-B3 variant K334_07I/GpL16-k0 (antibody, human IgG1, kappa)
heavy 1: not shown
heavy 2: not shown
light: B1 light
notes: as for B1
B14: GpH7-A5/GpH7-B3 variant E333_16H/GpL16-k0 (antibody, human IgG1, kappa)
heavy 1: not shown
heavy 2: not shown
light: B1 light
notes: as for B1
B15: GpH7-A5/GpH7-B3 variant K334_02A/GpL16-k0 (antibody, human IgG1, kappa)
heavy 1: not shown
heavy 2: not shown
light: B1 light
notes: as for B1
B16: GpH7-A5/GpH7-B3 variant K334_05P/GpL16-k0 (antibody, human IgG1, kappa)
heavy 1: not shown
heavy 2: not shown
light: B1 light
notes: as for B1
B17: GpH7-A5/GpH7-B3 variant Q295_16H/GpL16-k0 (antibody, human IgG1, kappa)
heavy 1: not shown
heavy 2: not shown
light: B1 light
notes: as for B1
B18: GpH7-A5/GpH7-B3 variant K334_09D/GpL16-k0 (antibody, human IgG1, kappa)
heavy 1: not shown
heavy 2: not shown
light: B1 light
notes: as for B1
B19: GpH7-A5/GpH7-B3 variant P329_11K/GpL16-k0 (antibody, human IgG1, kappa)
heavy 1: not shown
heavy 2: not shown
light: B1 light
notes: as for B1
B20: GpH7-A5/GpH7-B3 variant Q295_14T/GpL16-k0 (antibody, human IgG1, kappa)
heavy 1: not shown
heavy 2: not shown
light: B1 light
notes: as for B1
B21: GpH7-A5/GpH7-B3 variant K334_06M/GpL16-k0 (antibody, human IgG1, kappa)
heavy 1: not shown
heavy 2: not shown
light: B1 light
notes: as for B1
B22: GpH7-A5/GpH7-B3 variant S298_04F/GpL16-k0 (antibody, human IgG1, kappa)
heavy 1: not shown
heavy 2: not shown
light: B1 light
notes: as for B1
B23: GpH7-A5/GpH7-B3 variant Q295_18N/GpL16-k0 (antibody, human IgG1, kappa)
heavy 1: not shown
heavy 2: not shown
light: B1 light
notes: as for B1
B24: GpH7-A5/GpH7-B3 variant I332_01G/GpL16-k0 (antibody, human IgG1, kappa)
heavy 1: not shown
heavy 2: not shown
light: B1 light
notes: as for B1
B25: GpH7-A5/GpH7-B3 variant S298_07I/GpL16-k0 (antibody, human IgG1, kappa)
heavy 1: not shown
heavy 2: not shown
light: B1 light
notes: as for B1
B26: GpH7-A5/GpH7-B3 variant P329_02A/GpL16-k0 (antibody, human IgG1, kappa)
heavy 1: not shown
heavy 2: not shown
light: B1 light
notes: as for B1
B27: GpH7-A5/GpH7-B3 variant K334_04F/GpL16-k0 (antibody, human IgG1, kappa)
heavy 1: not shown
heavy 2: not shown
light: B1 light
notes: as for B1
B28: GpH7-A5/GpH7-B3 variant S298_03V/GpL16-k0 (antibody, human IgG1, kappa)
heavy 1: not shown
heavy 2: not shown
light: B1 light
notes: as for B1
B29: GpH7-A5/GpH7-B3 variant K334_01G/GpL16-k0 (antibody, human IgG1, kappa)
heavy 1: not shown
heavy 2: not shown
light: B1 light
notes: as for B1
B30: GpH7-A5/GpH7-B3 variant S298_09D/GpL16-k0 (antibody, human IgG1, kappa)
heavy 1: not shown
heavy 2: not shown
light: B1 light
notes: as for B1

Columns and labels:
[1] = molecular target: T1, FcγRIIb extracellular domain with C-terminal His tag (human, UniProt P31994 43-217); experiment: SPR (Biacore), antibody captured, FcγR as analyte; He Ab binding / GpH7-A5/GpH7-B3/GpL16-k0 binding x 100
T1 construct: extracellular domain; also called FcgRIIb; 2b; not shown: His tag at the C terminus
T1 sequence (looked up): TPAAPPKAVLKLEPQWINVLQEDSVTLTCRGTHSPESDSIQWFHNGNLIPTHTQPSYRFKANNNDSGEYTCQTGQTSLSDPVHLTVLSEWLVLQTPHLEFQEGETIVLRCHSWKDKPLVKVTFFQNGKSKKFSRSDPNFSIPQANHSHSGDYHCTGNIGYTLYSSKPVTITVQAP

[2] = molecular target: T2, FcγRIIIa extracellular domain with C-terminal His tag (human, UniProt P08637 17-208); experiment: as above
T2 construct: extracellular domain; also called FcgRIIIa; 3a; not shown: His tag at the C terminus

[3] = molecular target: T2, FcγRIIIa extracellular domain with …; experiment: SPR (Biacore); ratio of He/Con_3a (FcγRIIIa) to He/Con_2b (FcγRIIb)
In short: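 Surface plasmon resonance on a Biacore T100 measured FcγR interaction with antibodies bound to immobilized antigen peptide, at 25 °C in HBS-EP+.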

T2 sequence (P08637 17-208): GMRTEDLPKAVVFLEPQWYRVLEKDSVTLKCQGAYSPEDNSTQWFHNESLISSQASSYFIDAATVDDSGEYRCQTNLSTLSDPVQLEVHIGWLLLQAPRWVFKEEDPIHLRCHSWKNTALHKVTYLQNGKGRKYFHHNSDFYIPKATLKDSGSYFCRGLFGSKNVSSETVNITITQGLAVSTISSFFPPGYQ

| Binder | He/Con_2b (IIb binding) [1] | He/Con_3a (IIIa binding) [2] | He_3a/2b (IIIa/IIb) [3] [ratio] |
| --- | --- | --- | --- |
| B1 | 81.8 relative, control = 100 | 103 relative, control = 100 | 1.26 |
| B2 | 63.5 relative, control = 100 | 76.5 relative, control = 100 | 1.2 |
| B3 | 147 relative, control = 100 | 207 relative, control = 100 | 1.41 |
| B4 | 61.4 relative, control = 100 | 85.6 relative, control = 100 | 1.39 |
| B5 | 78.3 relative, control = 100 | 104 relative, control = 100 | 1.33 |
| B6 | 56.9 relative, control = 100 | 86.1 relative, control = 100 | 1.51 |
| B7 | 77.9 relative, control = 100 | 113 relative, control = 100 | 1.45 |
| B8 | 142 relative, control = 100 | 233 relative, control = 100 | 1.63 |
| B9 | 106 relative, control = 100 | 143 relative, control = 100 | 1.35 |
| B10 | 17.6 relative, control = 100 | 26.7 relative, control = 100 | 1.52 |
| B11 | 81.1 relative, control = 100 | 105 relative, control = 100 | 1.29 |
| B12 | 48.9 relative, control = 100 | 75.9 relative, control = 100 | 1.55 |
| B13 | 119 relative, control = 100 | 151 relative, control = 100 | 1.27 |
| B14 | 83.3 relative, control = 100 | 103 relative, control = 100 | 1.24 |
| B15 | 108 relative, control = 100 | 147 relative, control = 100 | 1.37 |
| B16 | 105 relative, control = 100 | 134 relative, control = 100 | 1.27 |
| B17 | 62.7 relative, control = 100 | 76.4 relative, control = 100 | 1.22 |
| B18 | 94.8 relative, control = 100 | 160 relative, control = 100 | 1.69 |
| B19 | 16.9 relative, control = 100 | 29.6 relative, control = 100 | 1.76 |
| B20 | 66.8 relative, control = 100 | 115 relative, control = 100 | 1.72 |
| B21 | 109 relative, control = 100 | 144 relative, control = 100 | 1.33 |
| B22 | 65.4 relative, control = 100 | 82.5 relative, control = 100 | 1.26 |
| B23 | 64.9 relative, control = 100 | 81.6 relative, control = 100 | 1.26 |
| B24 | 87.1 relative, control = 100 | 111 relative, control = 100 | 1.27 |
| B25 | 70.6 relative, control = 100 | 96.4 relative, control = 100 | 1.37 |
| B26 | 40.5 relative, control = 100 | 56.4 relative, control = 100 | 1.39 |
| B27 | 111 relative, control = 100 | 148 relative, control = 100 | 1.33 |
| B28 | 64.5 relative, control = 100 | 109 relative, control = 100 | 1.69 |
| B29 | 92.5 relative, control = 100 | 121 relative, control = 100 | 1.31 |
| B30 | 48.3 relative, control = 100 | 66.7 relative, control = 100 | 1.38 |
